Reference: patent publication US20190015483A1 (CSL BEHRING RECOMBINANT FACILITY, published 2019)
Where a chain is given by its changes, count along the chain named. In names and notes the source's numbering stands.

T1: recombinant Factor VIII (CSL627, rVIII-SingleChain) (Homo sapiens (Human), UniProt P00451 20-2351)
T1 construct: also called FVIII
T1 sequence: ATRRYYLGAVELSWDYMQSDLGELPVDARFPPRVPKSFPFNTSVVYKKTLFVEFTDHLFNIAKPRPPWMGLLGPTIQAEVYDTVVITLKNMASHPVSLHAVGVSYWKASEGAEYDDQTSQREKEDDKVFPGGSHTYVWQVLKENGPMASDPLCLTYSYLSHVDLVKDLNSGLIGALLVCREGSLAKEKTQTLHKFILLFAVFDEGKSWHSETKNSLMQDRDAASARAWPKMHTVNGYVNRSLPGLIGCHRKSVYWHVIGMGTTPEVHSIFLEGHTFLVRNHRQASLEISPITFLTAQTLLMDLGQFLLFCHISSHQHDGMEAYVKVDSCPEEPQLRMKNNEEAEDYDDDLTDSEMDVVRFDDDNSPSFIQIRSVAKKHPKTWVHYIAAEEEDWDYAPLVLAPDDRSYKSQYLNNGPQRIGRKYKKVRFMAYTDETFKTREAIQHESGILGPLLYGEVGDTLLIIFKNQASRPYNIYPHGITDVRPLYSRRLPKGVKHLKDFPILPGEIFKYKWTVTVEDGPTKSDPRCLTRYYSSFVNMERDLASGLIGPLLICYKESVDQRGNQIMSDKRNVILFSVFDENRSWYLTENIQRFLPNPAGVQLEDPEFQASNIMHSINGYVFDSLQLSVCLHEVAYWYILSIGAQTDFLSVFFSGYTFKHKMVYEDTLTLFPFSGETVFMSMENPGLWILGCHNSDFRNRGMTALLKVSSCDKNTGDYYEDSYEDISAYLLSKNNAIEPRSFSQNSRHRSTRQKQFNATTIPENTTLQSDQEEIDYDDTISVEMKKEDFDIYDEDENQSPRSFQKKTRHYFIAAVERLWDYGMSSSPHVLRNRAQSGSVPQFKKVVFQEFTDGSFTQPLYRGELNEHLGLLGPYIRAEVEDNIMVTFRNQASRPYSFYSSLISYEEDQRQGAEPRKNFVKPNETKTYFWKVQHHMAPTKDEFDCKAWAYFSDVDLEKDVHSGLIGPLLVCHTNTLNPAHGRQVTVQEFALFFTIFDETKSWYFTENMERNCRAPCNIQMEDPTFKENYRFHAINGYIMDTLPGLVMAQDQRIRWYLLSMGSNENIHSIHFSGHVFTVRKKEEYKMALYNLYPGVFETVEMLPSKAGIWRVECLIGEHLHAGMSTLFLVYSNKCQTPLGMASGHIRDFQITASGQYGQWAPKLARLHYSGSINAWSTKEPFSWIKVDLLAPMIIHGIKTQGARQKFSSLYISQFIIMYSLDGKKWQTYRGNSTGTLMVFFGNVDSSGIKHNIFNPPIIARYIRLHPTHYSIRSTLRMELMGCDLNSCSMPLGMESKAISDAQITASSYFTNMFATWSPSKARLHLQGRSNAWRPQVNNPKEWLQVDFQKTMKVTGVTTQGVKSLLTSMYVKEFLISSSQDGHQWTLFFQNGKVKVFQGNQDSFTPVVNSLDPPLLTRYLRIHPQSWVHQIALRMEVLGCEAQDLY

T2: recombinant Factor VIII (CSL627, rVIII-SingleChain) (Homo sapiens (Human), UniProt P00451 20-2351)
T2 construct: also called FVIII
T2 sequence: T1 sequence

B1: Hu-vWF[764-1270]-8His S764P-K773A (other)
chain: PLSCRPPMVALVCPADNLRAEGLECTKTCQNYDLECMSMGCVSGCLCPPGMVRHENRCVALERCPCFHQGKEYAPGETVKIGCNTCVCRDRKWNCTDHVCDATCSTIGMAHYLTFDGLKYLFPGECQYVLVQDYCGSNPGTFRILVGNKGCSHPSVKCKKRVTILVEGGEIELFDGEVNVKRPMKDETHFEVVESGRYIILLLGKALSVVWDRHLSISVVLKQTYQEKVCGLCGNFDGIQNNDLTSSNLQVEEDPVDFGNSWKVSSQCADTRKVPLDSSPATCHNNIMKQTMVDSSCRILTSDVFQDCNKLVDPEPYLDVCIYDTCSCESIGDCACFCDTIAAYAHVCAQHGKVVTWRTATLCPQSCEERNLRENGYECEWRYNSCAPACQVTCQHPEPLACPVQCVEGCHAHCPPGKILDELLQTCVDPEDCPVCEVAGRRFASGKKVTLNPSDPEHCQICHCDVVNLTCEACQEPGGLVVPPTDAPVSPTTLYVEDISEPPLHDFHHHHHHHH
B2: Hu-vWF[764-1270]-8His S764P-K773H (other)
chain: B1 chain with A10H
B3: Hu-vWF[764-1270]-8His S764P-K773N (other)
chain: B1 chain with A10N
B4: Hu-vWF[764-1270]-8His S764P-K773L (other)
chain: B1 chain with A10L
B5: Hu-vWF[764-1270]-8His S764P-K773Y (other)
chain: B1 chain with A10Y
B6: Hu-vWF[764-1270]-8His S764P-K773M (other)
chain: B1 chain with A10M
B7: Hu-vWF[764-1270]-8His S764P-K773D (other)
chain: B1 chain with A10D
B8: Hu-vWF[764-1270]-8His S764P-K773T (other)
chain: B1 chain with A10T
B9: Hu-vWF[764-1270]-8His S764P-K773R (other)
chain: B1 chain with A10R
B10: Hu-vWF[764-1270]-8His S764P-L765A (other)
chain: B1 chain with L2A, A10K
B11: Hu-vWF[764-1270]-8His S764P-K773G (other)
chain: B1 chain with A10G
B12: Hu-vWF[764-1270]-8His S764P-L765H (other)
chain: B1 chain with L2H, A10K
B13: Hu-vWF[764-1270]-8His S764P-K773E (other)
chain: B1 chain with A10E
B14: Hu-vWF[764-1270]-8His S764P-L765F (other)
chain: B1 chain with L2F, A10K
B15: Hu-vWF[764-1270]-8His S764P-K773S (other)
chain: B1 chain with A10S
B16: Hu-vWF[764-1270]-8His S764P-K773V (other)
chain: B1 chain with A10V
B17: Hu-vWF[764-1270]-8His S764P-K773P (other)
chain: B1 chain with A10P
B18: Hu-vWF[764-1270]-8His S764P-K773W (other)
chain: B1 chain with A10W
B19: Hu-vWF[764-1270]-8His S764P-K773F (other)
chain: B1 chain with A10F
B20: Hu-vWF[764-1270]-8His S764P-K773Q (other)
chain: B1 chain with A10Q
B21: Hu-vWF[764-1270]-8His S764P-K773I (other)
chain: B1 chain with A10I
B22: Hu-vWF[764-1270]-8His S766Y-R768S (other)
chain: B1 chain with P1S, S3Y, R5S, A10K
B23: Hu-vWF[764-1270]-8His S766Y-R768L (other)
chain: B1 chain with P1S, S3Y, R5L, A10K
B24: Hu-vWF[764-1270]-8His S766Y-R768Y (other)
chain: B1 chain with P1S, S3Y, R5Y, A10K
B25: Hu-vWF[764-1270]-8His S766Y-R768W (other)
chain: B1 chain with P1S, S3Y, R5W, A10K
B26: Hu-vWF[764-1270]-8His S766Y-R768P (other)
chain: B1 chain with P1S, S3Y, R5P, A10K
B27: Hu-vWF[764-1270]-8His S766Y-R768V (other)
chain: B1 chain with P1S, S3Y, R5V, A10K
B28: Hu-vWF[764-1270]-8His S766Y-R768M (other)
chain: B1 chain with P1S, S3Y, R5M, A10K
B29: Hu-vWF[764-1270]-8His S766Y-R768T (other)
chain: B1 chain with P1S, S3Y, R5T, A10K
B30: Hu-vWF[764-1270]-8His S766Y-R768Q (other)
chain: B1 chain with P1S, S3Y, R5Q, A10K
B31: Hu-vWF[764-1270]-8His S766Y-R768N (other)
chain: B1 chain with P1S, S3Y, R5N, A10K

molecular target: T1, recombinant Factor VIII (CSL627, …); assay: SPR, anti-His capture
Experimental: Binding kinetics were investigated by surface plasmon resonance using a Biacore 4000 biosensor at 37° C. Each mutant was captured from cell culture medium to a density of 40-150 RU on a CM-5 sensor chip pre-immobilised with anti-His antibody (14,000 RU). In an initial screening study, FVIII was injected over the captured mutants for 5 minutes at 1 nM and dissociation monitored for 5 minutes.
All sensorgrams were double referenced by subtraction of signals from a reference spot (containing only immobilised anti His antibody) and from a blank injection. Binding kinetics were determined by fitting the double referenced sensorgrams to a 1:1 kinetic model.

Row | Kd | koff | kon | Binder
1 | 29.7 pM | 0.000189 s⁻¹ | 6.37e+06 M⁻¹ s⁻¹ | B1
2 | 38.6 pM | 0.000636 s⁻¹ | 1.65e+07 M⁻¹ s⁻¹ | B2
3 | 63.1 pM | 0.000347 s⁻¹ | 5.5e+06 M⁻¹ s⁻¹ | B3
4 | 1240 pM | 0.000572 s⁻¹ | 460000 M⁻¹ s⁻¹ | B4
5 | 83.5 pM | 0.00136 s⁻¹ | 1.63e+07 M⁻¹ s⁻¹ | B5
6 | 10.8 pM | 0.00017 s⁻¹ | 1.58e+07 M⁻¹ s⁻¹ | B6
7 | 136 pM | 0.0024 s⁻¹ | 1.77e+07 M⁻¹ s⁻¹ | B7
8 | 16 pM | 7.5e-05 s⁻¹ | 4.68e+06 M⁻¹ s⁻¹ | B8
9 | 11.6 pM | 7.42e-05 s⁻¹ | 6.39e+06 M⁻¹ s⁻¹ | B9
10 | 906 pM | 0.0278 s⁻¹ | 3.07e+07 M⁻¹ s⁻¹ | B10
11 | 43.6 pM | 0.000762 s⁻¹ | 1.75e+07 M⁻¹ s⁻¹ | B11
12 | 555 pM | 0.00642 s⁻¹ | 1.16e+07 M⁻¹ s⁻¹ | B12
13 | 76.5 pM | 0.00515 s⁻¹ | 6.73e+07 M⁻¹ s⁻¹ | B13
14 | 37.3 pM | 0.000632 s⁻¹ | 1.69e+07 M⁻¹ s⁻¹ | B14
15 | 14.2 pM | 0.000306 s⁻¹ | 2.16e+07 M⁻¹ s⁻¹ | B15
16 | 10.1 pM | 0.000157 s⁻¹ | 1.55e+07 M⁻¹ s⁻¹ | B16
17 | 22.2 pM | 0.000501 s⁻¹ | 2.26e+07 M⁻¹ s⁻¹ | B17
18 | 257 pM | 0.00321 s⁻¹ | 1.25e+07 M⁻¹ s⁻¹ | B18
19 | 121 pM | 0.00123 s⁻¹ | 1.02e+07 M⁻¹ s⁻¹ | B19
20 | 28.8 pM | 0.000128 s⁻¹ | 4.44e+06 M⁻¹ s⁻¹ | B20
21 | 9.43 pM | 0.000169 s⁻¹ | 1.79e+07 M⁻¹ s⁻¹ | B21

molecular target: T2, recombinant Factor VIII (CSL627, …); assay: SPR, anti-His capture, FVIII injected, 37 C
Procedure, shortened: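 Capture 40-150 RU mutant from medium on anti-His (14,000 RU) CM-5; 1 nM FVIII, 5 min on / 5 min off; reference spot + blank subtracted; 1:1 fit.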

Row | Kd | koff | kon | Binder
22 | 243 pM | 0.00129 s⁻¹ | 5.33e+06 M⁻¹ s⁻¹ | B22
23 | 129 pM | 0.000548 s⁻¹ | 4.24e+06 M⁻¹ s⁻¹ | B23
24 | 277 pM | 0.00187 s⁻¹ | 6.74e+06 M⁻¹ s⁻¹ | B24
25 | 213 pM | 0.00094 s⁻¹ | 4.42e+06 M⁻¹ s⁻¹ | B25
26 | 213 pM | 0.00143 s⁻¹ | 6.71e+06 M⁻¹ s⁻¹ | B26
27 | 203 pM | 0.000918 s⁻¹ | 4.51e+06 M⁻¹ s⁻¹ | B27
28 | 196 pM | 0.000801 s⁻¹ | 4.08e+06 M⁻¹ s⁻¹ | B28
29 | 256 pM | 0.00143 s⁻¹ | 5.59e+06 M⁻¹ s⁻¹ | B29
30 | 174 pM | 0.000606 s⁻¹ | 3.48e+06 M⁻¹ s⁻¹ | B30
31 | 191 pM | 0.000798 s⁻¹ | 4.18e+06 M⁻¹ s⁻¹ | B31
